From patent publication US20170002346A1

Molecular target: V5 epitope tagged Sag1p fragment fusion displayed on the cell surface of Pichia pastoris (vectors without insert, s1-V5-SAG1 constructs) (S. cerevisiae) (UniProt P20840)
Experiment: flow cytometry, FITC anti-V5 staining of plate-grown SuperMan5 cells with GAP and UP promoter constructs (5 isolates each)

Sequence of UniProt P20840 (P20840 331-650): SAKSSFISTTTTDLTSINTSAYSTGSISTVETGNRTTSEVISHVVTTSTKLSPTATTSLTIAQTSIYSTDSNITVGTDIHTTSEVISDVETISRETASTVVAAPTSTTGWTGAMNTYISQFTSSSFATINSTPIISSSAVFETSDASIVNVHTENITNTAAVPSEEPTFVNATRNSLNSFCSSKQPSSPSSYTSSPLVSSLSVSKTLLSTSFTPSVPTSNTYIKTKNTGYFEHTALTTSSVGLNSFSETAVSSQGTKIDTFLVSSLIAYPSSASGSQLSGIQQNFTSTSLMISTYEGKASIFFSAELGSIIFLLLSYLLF

- FITC signal against unlabeled cells (orders of magnitude): 2
Substance: FITC-labeled anti-V5 (Abcam, V5-tag-antibody-FITC-ab1209)
